Test results as given in PMC11189624.

Columns and labels:
[1] = target: Melanophilin GTBM (Mus musculus) (UniProt Q91V27); conditions: cited from earlier work
[2] = target: Mlph-ABD labelled with ATTO 488 NHS Ester dye (mouse) (UniProt Q91V27); experiment: MST; Monolith NT.115, 25 °C; Mlph-ABD labelled with ATTO 488 at 20 nM; two-fold dilution series (16) of Myo5a-MTD or Myo5a-MTDΔG from 50 uM; 50 mM Tris-HCl pH 7.8, 100 mM NaCl, 10 mM MgCl2, 0.05% Tween 20
Sequence of Mlph-ABD labelled with ATTO 488 NHS Ester dye (mouse) (Q91V27 401-590): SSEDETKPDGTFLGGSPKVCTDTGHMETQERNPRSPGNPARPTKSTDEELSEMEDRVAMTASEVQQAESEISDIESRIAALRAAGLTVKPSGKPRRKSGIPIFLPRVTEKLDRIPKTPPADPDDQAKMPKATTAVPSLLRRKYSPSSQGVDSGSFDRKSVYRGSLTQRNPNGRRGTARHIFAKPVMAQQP

Sequence of Myosin-5a GTD (Q99104 1469-1853): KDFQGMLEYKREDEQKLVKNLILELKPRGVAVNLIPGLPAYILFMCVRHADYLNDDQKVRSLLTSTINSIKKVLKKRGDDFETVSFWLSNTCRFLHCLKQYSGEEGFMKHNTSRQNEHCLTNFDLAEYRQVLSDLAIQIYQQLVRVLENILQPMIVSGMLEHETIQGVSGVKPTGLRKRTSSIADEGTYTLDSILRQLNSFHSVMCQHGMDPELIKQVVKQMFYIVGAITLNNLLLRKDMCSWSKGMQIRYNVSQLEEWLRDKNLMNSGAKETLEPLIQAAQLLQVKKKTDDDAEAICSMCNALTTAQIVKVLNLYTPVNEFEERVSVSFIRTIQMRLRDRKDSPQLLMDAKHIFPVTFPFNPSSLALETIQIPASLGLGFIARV
Sequence of Melanophilin GTBM (Mus musculus) (Q91V27 176-201): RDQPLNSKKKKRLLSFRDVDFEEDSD

Row | Substance | Kd [1] | Kd [2]
1 | Myosin-5a GTD (from UniProt Q99104) | 1000 nM | 
2 | Flag-Myo5a-MTD (residues 1106–1467), bacterial-expressed (domain or fragment) |  | 562 nM
